In paper PMC6703420, “How Thermophilic Gram-Positive Organisms Perform Extracellular Electron Transfer: Characterization of the Cell Surface Terminal Reductase OcwA” (mBio, 2019):

Tests used:
[1] = molecular target: T1, OcwA (Outer cell wall protein A), TherJR_2595 (Thermincola carboxydiphila, UniProt D5XBK3); assay: […] NMR titration; type: binding; settings: 100 μM FMN, 20 mM phosphate pH 7.6, 100 mM KCl, 25°C; slow exchange
T1 construct: native signal peptide replaced by that of S. oneidensis MR-1 stc, cleaved (N-terminus EKPAD); E. coli JM109(DE3), HisTrap purified; ~62 kDa; nine c-type hemes; monomer/dimer mixture; precursor 525 residues

purified protein = substrate: O=NO; assay: purified protein; type: biochemical, Thermincola carboxydiphila; settings: up to 1 mM reduced methyl viologen, 50 mM potassium phosphate pH 7.0, 55°C, anaerobic

In the case of `Cc1cc2nc3c(=O)[nH]c(=O)nc-3n(C[C@H](O)[C@H](O)[C@H](O)COP(=O)(O)O)c2cc1C` [FMN, flavin mononucleotide], the “31P NMR titration” value [1] is reported as “These spectral changes arise from binding of FMN to OcwA in a slow exchange regime”.

B1: OcwA (Outer cell wall protein A), TherJR_2595 (Thermincola carboxydiphila JR) (protein)
chain: EKPADSGPAVAQNTEYVGDEACKTCHSDVHSAWSETSHGNFIKDVTKDPKALPGNFEGNYPKMLNFKAEDIQYVLLGKPGALKVQELVGKKGTFGVPADDYPVMWASWDAGKGEWEIEVEAIGEGTPWLSTCAGCHVTGLTVPTDKNPKAAKAFAGFGITCEQCHGPGAKHIKNPQGEKMVISYDAENCGQCHSRGDSVAKTPDGKPFGYPYNDEGQYVPGKKLADYYTVVSVEGDKEGKLFWPTKHAKNSHHLQYPEWLMTGHATALETLKGNGHAQDRCLKCHSAEAYLAKEGTTVTMNDAKLGVTCQVCHASHDPAATKEAFLRKPKTEICTQCHNAEGGIVAGKEVHHPHKEMNEGKIGLGFPDSPSVMYKAGVTCVDCHMPKTAGPKASHLMKVVMPKDGKANGMPDSCSSCHPGASQDYLQNVIDTWQNDIKGRLAKVKAKLDAKKAAANSQAYKEALTYYSIVAADGSNGVHNYDLAVKLLTAAEQKLQ
notes: native signal peptide replaced by that of S. oneidensis MR-1 stc, cleaved (N-terminus EKPAD); E. coli JM109(DE3), HisTrap purified; ~62 kDa; nine c-type hemes; monomer/dimer mixture; precursor 525 residues
B1 gave a Km (purified protein) of 65 µM and a kcat (purified protein) of 0.017 s⁻¹.
